Reference: article doi:10.1101/2023.03.16.532763 (bioRxiv, 2023)

Molecular target: purified full-length Polθ (UniProt O75417 1-2590)
Assay: co-IP

purified full-length Polθ, sequence (O75417 whole entry): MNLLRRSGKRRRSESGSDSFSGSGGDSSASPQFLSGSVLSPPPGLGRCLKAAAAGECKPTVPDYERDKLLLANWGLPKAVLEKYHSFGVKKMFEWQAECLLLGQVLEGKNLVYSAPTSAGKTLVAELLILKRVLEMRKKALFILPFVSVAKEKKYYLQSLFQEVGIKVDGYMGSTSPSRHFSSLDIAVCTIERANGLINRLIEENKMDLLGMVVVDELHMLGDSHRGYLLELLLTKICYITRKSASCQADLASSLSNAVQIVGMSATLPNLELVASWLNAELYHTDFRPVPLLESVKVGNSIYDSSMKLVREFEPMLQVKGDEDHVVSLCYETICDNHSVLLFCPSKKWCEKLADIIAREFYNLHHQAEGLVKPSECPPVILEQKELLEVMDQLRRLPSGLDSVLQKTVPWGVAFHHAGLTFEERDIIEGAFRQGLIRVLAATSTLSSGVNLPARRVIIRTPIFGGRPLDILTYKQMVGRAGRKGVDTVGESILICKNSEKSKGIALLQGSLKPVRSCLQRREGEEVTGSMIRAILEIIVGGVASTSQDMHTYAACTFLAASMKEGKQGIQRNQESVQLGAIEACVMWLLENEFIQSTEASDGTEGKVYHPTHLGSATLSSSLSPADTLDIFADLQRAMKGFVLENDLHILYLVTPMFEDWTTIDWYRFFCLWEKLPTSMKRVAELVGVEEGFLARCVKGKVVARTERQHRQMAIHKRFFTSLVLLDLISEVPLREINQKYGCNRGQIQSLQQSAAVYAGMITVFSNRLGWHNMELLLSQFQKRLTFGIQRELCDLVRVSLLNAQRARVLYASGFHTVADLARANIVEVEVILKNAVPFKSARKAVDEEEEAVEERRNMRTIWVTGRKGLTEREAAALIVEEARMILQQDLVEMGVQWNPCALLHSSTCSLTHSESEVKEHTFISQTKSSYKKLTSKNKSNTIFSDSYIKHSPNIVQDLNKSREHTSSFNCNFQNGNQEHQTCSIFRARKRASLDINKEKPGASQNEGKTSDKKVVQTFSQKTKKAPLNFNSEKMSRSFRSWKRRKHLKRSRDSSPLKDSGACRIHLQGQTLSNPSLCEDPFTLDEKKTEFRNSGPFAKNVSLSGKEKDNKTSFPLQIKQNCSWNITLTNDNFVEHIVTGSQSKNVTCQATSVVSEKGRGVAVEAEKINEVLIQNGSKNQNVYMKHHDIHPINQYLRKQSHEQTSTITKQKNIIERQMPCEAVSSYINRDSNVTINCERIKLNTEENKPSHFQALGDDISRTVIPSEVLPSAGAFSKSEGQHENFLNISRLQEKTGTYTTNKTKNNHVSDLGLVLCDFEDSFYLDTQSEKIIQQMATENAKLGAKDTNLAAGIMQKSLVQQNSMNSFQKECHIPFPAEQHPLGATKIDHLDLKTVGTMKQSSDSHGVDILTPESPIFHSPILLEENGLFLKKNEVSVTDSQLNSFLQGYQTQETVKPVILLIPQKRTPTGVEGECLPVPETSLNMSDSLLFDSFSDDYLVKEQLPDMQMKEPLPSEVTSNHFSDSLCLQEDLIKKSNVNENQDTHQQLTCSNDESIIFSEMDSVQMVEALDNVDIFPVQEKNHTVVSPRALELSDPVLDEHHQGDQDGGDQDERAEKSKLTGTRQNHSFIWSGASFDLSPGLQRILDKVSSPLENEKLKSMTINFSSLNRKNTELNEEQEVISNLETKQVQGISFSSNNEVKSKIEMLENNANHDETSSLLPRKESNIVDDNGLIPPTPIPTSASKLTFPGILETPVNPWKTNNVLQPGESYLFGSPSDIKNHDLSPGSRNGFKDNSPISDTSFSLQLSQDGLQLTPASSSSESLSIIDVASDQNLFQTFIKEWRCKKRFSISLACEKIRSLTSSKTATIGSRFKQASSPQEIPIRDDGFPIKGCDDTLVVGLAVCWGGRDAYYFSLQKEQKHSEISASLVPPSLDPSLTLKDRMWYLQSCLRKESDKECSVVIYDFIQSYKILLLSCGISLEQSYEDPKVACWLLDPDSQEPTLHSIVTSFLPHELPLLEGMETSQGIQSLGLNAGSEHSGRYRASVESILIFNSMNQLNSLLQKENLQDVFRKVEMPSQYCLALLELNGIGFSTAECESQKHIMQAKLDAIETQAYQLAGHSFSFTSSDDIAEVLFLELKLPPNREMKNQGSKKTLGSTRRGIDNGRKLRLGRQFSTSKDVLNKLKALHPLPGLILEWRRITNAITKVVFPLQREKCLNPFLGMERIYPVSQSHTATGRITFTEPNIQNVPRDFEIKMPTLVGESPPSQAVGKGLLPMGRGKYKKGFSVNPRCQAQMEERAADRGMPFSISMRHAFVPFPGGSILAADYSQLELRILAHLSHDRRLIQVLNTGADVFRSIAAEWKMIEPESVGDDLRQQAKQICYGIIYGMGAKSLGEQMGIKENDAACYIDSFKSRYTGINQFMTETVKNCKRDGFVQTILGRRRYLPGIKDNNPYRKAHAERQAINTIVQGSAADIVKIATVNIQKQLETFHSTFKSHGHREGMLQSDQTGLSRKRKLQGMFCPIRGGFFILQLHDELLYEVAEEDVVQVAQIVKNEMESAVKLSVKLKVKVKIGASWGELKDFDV

- binding result: binds
B1: purified recombinant human RHINO protein (natural protein, UniProt Q9BSD3 1-238, looked up)
chain: MPPRKKRRQPSQKAPLLFHQQPLEGPKHSCASTQLPITHTRQVPSKPIDHSTITSWVSPDFDTAAGSLFPAYQKHQNRARHSSRKPTTSKFPHLTFESPQSSSSETLGIPLIRECPSESEKDVSRRPLVPVLSPQSCGNMSVQALQSLPYVFIPPDIQTPESSSVKEELIPQDQKENSLLSCTLHTGTPNSPEPGPVLVKDTPEDKYGIKVTWRRRQHLLAYLRERGKLSRSQFLVKS
